{"source": "patent US7176184B2", "about": "“Treatment for inflammatory bowel disease with a fibronectin polypeptide” (Biogen Idec MA Inc., priority 1992, dated 2007)", "key": {"[1]": {"test_system": "NOD mice receiving spleen cells from diabetic donors", "experiment": "Adoptive transfer of diabetes in NOD mice", "format": "in vivo", "description": "For the adoptive transfer of diabetes experiments, NOD mice were obtained from Taconic Farms (Germantown, N.Y.) or from the Joslin Diabetes Center (Boston, Mass.). Spontaneously diabetic (D) females of recent onset (13–20 weeks of age) were used as spleen cell donors and 8 week old nondiabetic (Y) females served as recipients. Spleen cells from 4 week old nondiabetic (Y) female donors which fail to transfer disease were used as a negative control.\nRecipient mice were placed on acidified water (1:8400 dilution of concentrated HCl in water) one week prior to sublethal irradiation (775 rad) performed in split doses (300 rad, 300 rad, and 175 rad) on each of three days (day −2, −1, and the day of transfer), in order to minimize any incidence of intestinal infection subsequent to high dose irradiation (Gamma Cell 1000 Cesium ^137 source, Nordion International, Inc., Ontario, Canada). Spleens were harvested from diabetic donors or from nondiabetic controls, cell suspensions made and red cells lysed with Hemolytic Geys solution. […] Another group received PBS alone without cells transferred. The fusion protein LFA-3Ig (LFA-3TIP) was isolated and purified as described in PCT US92/02050 and Miller et al., 1993 [36]. […] Diabetes onset was monitored as described above."}, "[2]": {"test_system": "dual responder allergic sheep", "experiment": "Sheep model of airways hyper-responsiveness (Ascaris suum antigen challenge)", "format": "in vivo", "method": "Experiments were performed essentially as described by Abraham et al.. […] To measure breathing mechanics and physical changes in the airways, the sheep were restrained in a prone position with heads immobilized. A balloon catheter was advanced through one nostril under topical anesthesia with 2% lidocaine solution to the lower esophagus, and a cuffed endotracheal tube was advanced through the other nostril (using a flexible fiberoptic bronchoscope as a guide) for the measurement of airway mechanics and during aerosol challenges. Pleural pressure was estimated with the esophageal balloon catheter (filled with 1 ml of air) positioned 5–10 cm from the gastroesophageal junction. In this position, end expiratory pleural pressure ranged between −2 and −5 cm H2O. Once the balloon was placed, it was secured so that it remained in position for the duration of the experiment. Lateral pressure in the trachea was measured with a sidehole catheter, (inner diam. 2.5 mm) advanced through and positioned distal to the tip of the endotracheal tube. Transpulmonary pressure (the difference between tracheal and pleural pressure) was measured with a differential pressure transducer catheter system (MP45, Validyne, Northridge, Calif.). […] Pulmonary resistance (RL) was measured by connecting the proximal end of the endotracheal tube to a Fleich pneumotachograph (Dyna Sciences, Blue Bell Pa.). Signals indicating flow and transpulmonary pressure were recorded on an oscilloscope recorder (Model DR-12; Electronics for Medicine, White Plains, N.Y.) linked to a computer for automatic calculation of pulmonary resistance (RL) from transpulmonary pressure, respiratory volume (obtained by digital integration) and flow by the mid-volume technique, analyzed from 5–10 breaths. Thoracic gas volume (Vtg) was measured immediately after determination of RL in a constant volume body plethysmograph. Specific lung resistance (SRL) was calculated from these values (SRL=Vtg×RL).\nAirway responsiveness was determined by performing dose response curves to inhaled carbachol. The dose response curves were plotted using measurements of SRL taken immediately after inhalation of buffer (PBS) alone and after each consecutive administration of 10 breaths of increasing concentrations of carbachol in PBS. The concentrations of carbachol were 0.25%, 0.5%, 1.0%, 2.0% and 4.0% wt/vol in PBS. The provocation test was discontinued when SRL increased over 400% from the post-PBS value or after the highest carbachol concentration had been administered. Airway responsiveness was determined by calculating from the dose response curves the cumulative carbachol dose in breath units (BU) that increased specific lung resistance 400% over the post buffer value (PD400%). One breath unit was defined as one breath of a 1% wt/vol carbachol solution.\nEach sheep was subjected to a trial as a control in which a placebo (PBS without additive) was used as a pretreatment 30 minutes before allergen challenge with Ascaris suum antigen (Greer Diagnostics, Lenoir, N.C.). The antigen solution was delivered as an aerosol using a disposable medical nebulizer (RAINDROP®, Puritan Bennett, Lenexa, Kans.) that provided an aerosol with a mass median aerodynamic diameter of 3.2 μM (geometric SD 1.9) as determined by an Andersen cascade impactor. The Ascaris suum extract was diluted in PBS to a concentration of 82,000 Protein Nitrogen Units(PNU)/ml. The output of the nebulizer was directed into a plastic T-tube, one end of which was connected to the inspiratory port of a Harvard respirator. A dosimeter connected to the nebulizer consisting of a solenoid valve and a 20 psi compressed air source and the solenoid valve was activated at the beginning of the inspiratory cycle of the Harvard respirator for one second. The aerosol delivered at a tidal volume of 500 ml and a rate of 20 breaths per min. for 20 min. Each sheep was challenged with an equivalent dose of antigen (400 breaths) in the control and VCAM1-IgG1 trials. […]"}, "CTT VLA4 on CTT PBLs": {"test_system": "CTT VLA4 on CTT PBLs", "experiment": "FACS analysis of binding of anti-VLA-4 monoclonal antibodies to CTT peripheral blood mononuclear leukocytes", "design": "species or system cotton top tamarin", "method": "Blood samples (3 ml) from CTTs were heparinized and the CTT peripheral blood mononuclear leukocytes (PBLs) were isolated using a Ficoll-Hypaque gradient (Pharmacia) according to the manufacturer's instructions for isolation of human PBLs. CTT PBLs were examined for their ability to bind to the murine anti-human VLA-4 monoclonal antibodies HP1/2 and HP2/1 by FACS analysis using a Becton Dickenson FACStar and standard techniques (see, e.g., Lobb et al., 1991a)."}, "[3]": {"test_system": "cotton top tamarins (CTTs) exhibiting symptoms of spontaneous colitis", "experiment": "Cotton top tamarin trials: acute inflammation index from colon biopsies", "format": "in vivo", "design": "Day 0 AII (acute inflammation index) / Day 10 AII (acute inflammation index): scale not given here", "details": "for Day 0 AII (acute inflammation index) / Day 10 AII (acute inflammation index): individual treated CTTs", "method": "Five CTTs received HP1/2 and five received placebo, by intravenous injection. The CTTs receiving HP1/2 were injected with 1 mg HP1/2 per day (i.e., about 2 mg/kg/day, based on approximate half-kilogram weight of a CTT) for eight days (on Days 0, 1, 2, 3, 4, 5, 6, and 7 of the trial). Colon tissue samples obtained from the animals were biopsied every other day (on Days 0, 2, 4, 6, 8, and 10 of the trial). Data from the biopsies were used to determine an acute inflammation index for each animal, giving a semi-quantitative analysis of the course of the colitis. (See, Madara et al..) The inflammation indices before the trial began (Day 0) and at the end of the trial at Day 10 are set forth in Table II, below: (“Treated CTTs” received antibody-HP1/2; “Control CTTs” received placebo) The trial described in Example III was repeated using 14 CTTs, 7 receiving HP1/2 and 7 receiving placebo."}, "VCAM-1-expressing cells": {"test_system": "VCAM-1-expressing cells", "experiment": "Leukocyte adhesion to VCAM-1-expressing cells", "format": "cell-based"}, "VLA-4": {"biological_target": "VLA-4 (Homo sapiens, UniProt P13612)", "sequence (P13612 34-1032)": "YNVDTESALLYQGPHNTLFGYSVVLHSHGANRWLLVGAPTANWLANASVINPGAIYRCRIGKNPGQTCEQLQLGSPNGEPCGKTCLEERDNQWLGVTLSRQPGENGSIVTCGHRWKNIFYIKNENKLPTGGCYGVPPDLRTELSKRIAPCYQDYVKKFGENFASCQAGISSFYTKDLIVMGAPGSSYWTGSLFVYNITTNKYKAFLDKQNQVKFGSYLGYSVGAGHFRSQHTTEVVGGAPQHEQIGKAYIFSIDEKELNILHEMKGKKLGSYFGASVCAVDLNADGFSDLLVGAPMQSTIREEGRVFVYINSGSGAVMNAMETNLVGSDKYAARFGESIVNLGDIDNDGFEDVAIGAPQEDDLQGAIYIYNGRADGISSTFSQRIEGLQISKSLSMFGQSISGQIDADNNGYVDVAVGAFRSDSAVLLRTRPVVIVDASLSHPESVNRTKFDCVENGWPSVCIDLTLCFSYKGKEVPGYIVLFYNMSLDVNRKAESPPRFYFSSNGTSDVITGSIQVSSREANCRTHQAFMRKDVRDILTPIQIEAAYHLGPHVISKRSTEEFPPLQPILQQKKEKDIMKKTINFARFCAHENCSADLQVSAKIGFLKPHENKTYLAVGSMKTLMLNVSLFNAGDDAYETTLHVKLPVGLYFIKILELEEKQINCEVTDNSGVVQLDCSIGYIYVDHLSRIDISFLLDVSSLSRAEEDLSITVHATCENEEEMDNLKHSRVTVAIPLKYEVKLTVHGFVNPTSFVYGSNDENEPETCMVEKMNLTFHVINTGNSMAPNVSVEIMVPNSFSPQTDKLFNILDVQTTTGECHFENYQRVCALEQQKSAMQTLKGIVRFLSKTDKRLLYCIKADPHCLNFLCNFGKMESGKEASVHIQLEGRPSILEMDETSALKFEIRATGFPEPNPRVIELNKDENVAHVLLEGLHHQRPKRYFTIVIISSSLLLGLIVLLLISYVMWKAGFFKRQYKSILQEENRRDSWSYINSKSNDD", "sequence (P05556 21-798 partner)": "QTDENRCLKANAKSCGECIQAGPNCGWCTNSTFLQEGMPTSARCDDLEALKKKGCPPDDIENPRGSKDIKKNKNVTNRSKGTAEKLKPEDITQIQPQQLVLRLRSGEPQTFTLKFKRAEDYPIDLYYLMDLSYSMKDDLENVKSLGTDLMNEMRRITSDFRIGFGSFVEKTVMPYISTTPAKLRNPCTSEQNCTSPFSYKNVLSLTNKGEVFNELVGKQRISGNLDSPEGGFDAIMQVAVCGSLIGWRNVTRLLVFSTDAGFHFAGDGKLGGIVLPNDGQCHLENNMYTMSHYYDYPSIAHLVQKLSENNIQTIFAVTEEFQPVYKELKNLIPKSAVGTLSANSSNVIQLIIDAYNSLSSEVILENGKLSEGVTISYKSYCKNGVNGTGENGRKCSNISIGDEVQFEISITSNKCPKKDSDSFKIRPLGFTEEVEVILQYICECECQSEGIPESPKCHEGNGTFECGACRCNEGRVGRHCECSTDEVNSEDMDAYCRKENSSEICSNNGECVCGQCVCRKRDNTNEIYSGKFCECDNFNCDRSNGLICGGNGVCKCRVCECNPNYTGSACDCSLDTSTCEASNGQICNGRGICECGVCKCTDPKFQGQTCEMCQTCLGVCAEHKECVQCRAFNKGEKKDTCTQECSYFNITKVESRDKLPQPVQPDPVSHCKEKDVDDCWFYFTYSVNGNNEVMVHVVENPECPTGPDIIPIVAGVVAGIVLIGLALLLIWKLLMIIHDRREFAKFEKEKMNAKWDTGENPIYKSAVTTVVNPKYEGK", "experiment": "VLA-4-mediated T cell activation", "format": "cell-based"}, "[4]": {"details": "15 mg aerosol 2, 8 and 24 h after antigen challenge, listed as VCAM-Ig"}, "[5]": {"details": "30 mg aerosol 2 and 24 h after antigen challenge (optimal dose), listed as VCAM-Ig"}, "[6]": {"details": "30 mg aerosol 30 min before and 8 h after antigen challenge, listed as VCAM-Ig"}, "[7]": {"details": "30 mg aerosol 30 min before antigen challenge"}, "[8]": {"details": "60 mg aerosol 30 min before antigen challenge, listed as VCAM-Ig"}}, "note": "Several values for one entry are separate records, joined by “and”; a condition that tells them apart may be missing. Identical values can stand only once. Entries after “also recorded” stand apart in the source; their conditions may differ."}
{"molecule": "VCAM 2D-IgG: soluble form of VCAM1: two N-terminal domains of VCAM1 fused to human IgG1 heavy chain constant region (hinge, CH2, CH3); SEQ ID NO: 5/12", "values": [{"measurement": "onset of diabetes in recipients of cells from diabetic donor mice", "setting": "[1]; 100 μg i.p. through day 17", "result": "significantly inhibits the onset of diabetes"}, {"measurement": "serum level of fusion protein (ELISA)", "setting": "[1]; 100 μg/0.2 ml i.p. twice weekly through day 17", "result": "sufficient to saturate VLA4-positive cells"}, {"measurement": "incidence of diabetes", "setting": "[1]; by day 30 post-transfer, recipients of cells from diabetic donors, 100 μg i.p. through day 17, n=5", "result": 60, "unit": "%"}, {"measurement": "airways hyper-responsiveness (AHR)", "setting": "[2]; [4]", "result": "blockage of the AHR; also recorded: inhibition of AHR"}, {"measurement": "late phase response (LPR)", "setting": "[2]; [4]", "result": "partial blockage; also recorded: significant but partial inhibition"}, {"measurement": "airways hyper-responsiveness (AHR)", "setting": "[2]; [5]", "result": "complete blockage; also recorded: complete inhibition"}, {"measurement": "late phase response (LPR)", "setting": "[2]; [5]", "result": "complete blockage; also recorded: complete inhibition"}, {"measurement": "airways hyper-responsiveness (AHR)", "setting": "[2]; [6]", "result": "no blockage; also recorded: no inhibition"}, {"measurement": "late phase response (LPR)", "setting": "[2]; [6]", "result": "blocked completely; also recorded: complete inhibition"}, {"measurement": "airways hyper-responsiveness (AHR)", "setting": "[2]; [7]", "result": "no effect"}, {"measurement": "late phase response (LPR)", "setting": "[2]; [7]", "result": "significant but partial inhibition"}, {"measurement": "airways hyper-responsiveness (AHR)", "setting": "[2]; [8]", "result": "blocked; also recorded: inhibition of AHR"}, {"measurement": "late phase response (LPR)", "setting": "[2]; [8]", "result": "partial blockage; also recorded: significant but partial inhibition"}, {"measurement": "late phase response (LPR) versus placebo control", "setting": "[2]; all dosing regimens, ten animals", "result": "partial or complete inhibition"}]}
{"molecule": "HP1/2: murine anti-human VLA-4 monoclonal antibody (IgG1) obtained from Biogen, Inc.; VH/VK in SEQ ID NO: 1-4 (antibody, listed as Mus musculus, V domains shown) VH: EVKLQQSGAELVKPGASVKLSCTASGFNIKDTYMHWVKQRPEQGLEWIGRIDPASGDTKYDPKFQVKATITADTSSNTAWLQLSSLTSEDTAVYYCADGMWVSTGYALDFWGQGTTVTVSS VL: SIVMTQTPKFLLVSAGDRVTITCKASQSVTNDVAWYQQKPGQSPKLLIYYASNRYTGVPDRFTGSGYGTDFTFTISTVQAEDLAVYFCQQDYSSPYTFGGGTKLEI", "values": [{"measurement": "binding to CTT PBLs", "setting": "CTT VLA4 on CTT PBLs", "result": "bound"}, {"measurement": "change in acute inflammation index", "setting": "[3]; Example III, Day 0 to Day 10", "result": "significant (p<0.01) decrease"}, {"measurement": "Day 0 AII (acute inflammation index)", "setting": "[3]; Example III, before the trial began, 1 mg HP1/2 per day i.v. Days 0-7", "result": "2 (3×) and 1 (2×)"}, {"measurement": "Day 10 AII (acute inflammation index)", "setting": "[3]; Example III, end of trial, 1 mg HP1/2 per day i.v. Days 0-7", "result": "1 and 0 (4×)"}, {"measurement": "Day 0 AII, MEAN", "setting": "[3]; Example III, mean of 5 treated CTTs, before the trial began", "result": 1.6}, {"measurement": "Day 10 AII, MEAN", "setting": "[3]; Example III, mean of 5 treated CTTs, end of trial", "result": 0.2}, {"measurement": "Day 0 AII (acute inflammation index)", "setting": "[3]; Example IV (repeat trial), Day 0", "result": 2}, {"measurement": "Day 10 AII (acute inflammation index)", "setting": "[3]; Example IV (repeat trial), Day 10", "result": "0 (5×) and 1 and 2"}, {"measurement": "change in acute inflammation", "setting": "[3]; Example IV, Day 0 to Day 10", "result": "significant decrease"}, {"measurement": "Day 0 AII, MEAN", "setting": "[3]; Example IV, mean of 7 treated CTTs, Day 0", "result": 2.0}, {"measurement": "Day 10 AII, MEAN", "setting": "[3]; Example IV, mean of 7 treated CTTs, Day 10", "result": 0.43}, {"measurement": "inflammation of biopsied intestinal tissue", "setting": "[3]; summary statement", "result": "significant reduction in inflammation"}, {"measurement": "leukocyte adhesion to VCAM-1-expressing cells", "setting": "VCAM-1-expressing cells", "result": "block"}, {"measurement": "VLA-4-mediated T cell activation", "setting": "VLA-4", "result": "not to promote"}]}
